Data published in patent EP2487185A1 (Clinuvel Pharmaceuticals Limited, dated 2012).
Non-standard residues stand in square brackets, D forms with d. Nle = CCCC[C@H](N)C(=O)O

Target: Melanocortin-1 Receptor (human, UniProt Q01726 1-317)
Experiment: cell-based or functional assay

Sequence of Melanocortin-1 Receptor (Q01726 whole entry): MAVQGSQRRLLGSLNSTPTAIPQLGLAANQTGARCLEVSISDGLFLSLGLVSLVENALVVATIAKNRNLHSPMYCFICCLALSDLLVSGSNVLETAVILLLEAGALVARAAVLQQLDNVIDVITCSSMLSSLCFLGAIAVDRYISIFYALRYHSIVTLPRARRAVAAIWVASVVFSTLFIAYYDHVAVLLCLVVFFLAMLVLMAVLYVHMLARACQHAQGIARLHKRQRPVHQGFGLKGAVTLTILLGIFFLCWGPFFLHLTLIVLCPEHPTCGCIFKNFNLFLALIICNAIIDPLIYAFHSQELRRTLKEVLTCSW

B1: CUV9900, Ac-Nle-Glu-His-D-Phe-Arg-Trp-NH2 (SEQ ID NO: 1) variation (peptide)
peptide: Ac-[Nle]EH[dF]RW-NH2
SMILES: CCCC[C@H](NC(C)=O)C(=O)N[C@@H](CCC(=O)O)C(=O)N[C@@H](Cc1c[nH]cn1)C(=O)N[C@H](Cc1ccccc1)C(=O)N[C@@H](CCCNC(=N)N)C(=O)N[C@@H](Cc1c[nH]c2ccccc12)C(N)=O
- tyrosinase activity, concentration giving maximal stimulation, melanocyte strain 102b, 6 days: 0.1 nM
